We go through two substances from patent publication US20070087966A1.

The test addresses rat PRL receptor (PRL-R) on trigeminal ganglia neurons (rat) (UniProt P05710). Description: cell-based or functional assay.

Chain of rat PRL receptor (PRL-R) on trigeminal ganglia neurons (rat) (P05710 20-610): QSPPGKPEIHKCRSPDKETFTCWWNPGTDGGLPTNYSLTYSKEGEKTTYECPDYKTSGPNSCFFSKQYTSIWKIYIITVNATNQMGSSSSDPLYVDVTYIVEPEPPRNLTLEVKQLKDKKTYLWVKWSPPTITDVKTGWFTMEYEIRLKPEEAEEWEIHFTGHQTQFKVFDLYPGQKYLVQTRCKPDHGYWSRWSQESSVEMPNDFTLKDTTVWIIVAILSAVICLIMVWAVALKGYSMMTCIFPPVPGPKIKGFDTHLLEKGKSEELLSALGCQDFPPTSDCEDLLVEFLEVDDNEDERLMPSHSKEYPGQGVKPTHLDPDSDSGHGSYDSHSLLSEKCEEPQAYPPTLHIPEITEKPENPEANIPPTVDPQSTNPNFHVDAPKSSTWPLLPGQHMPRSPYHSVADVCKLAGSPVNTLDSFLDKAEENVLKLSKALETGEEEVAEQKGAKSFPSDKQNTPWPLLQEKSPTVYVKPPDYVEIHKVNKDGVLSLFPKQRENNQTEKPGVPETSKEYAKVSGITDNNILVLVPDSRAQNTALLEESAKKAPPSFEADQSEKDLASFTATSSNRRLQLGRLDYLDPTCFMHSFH

Substance G129R-hPRL (ligand) registered a reduction of the PRL effect on Icap (G129R-PRL 16 nM with rPRL 4 nM) of 40%.

For the substance “Ovine PRL [oPRL-21, BIO] (from UniProt P01240 31-229) (ligand)”, the EC50 of sensitization of capsaicin-induced currents (Icap) in TG neurons from naive female rats came to 270 pM; the TRPV1 phosphorylation (32P incorporation) in TG neurons from intact female rats, PRL 40 nM for 10 min was 150%; the capsaicin-evoked Ca2+ influx in TG neurons from intact female rats (PRL 40 nM, 10 min) was found to be 71%.
